Results from patent US20230203196A1 (MABWELL THERAPEUTICS, published 2023).

T1: TMPRSS6 expressed in transfected HepG2 cells (UniProt Q8IU80 1-811, limits assumed)
T1 sequence (looked up): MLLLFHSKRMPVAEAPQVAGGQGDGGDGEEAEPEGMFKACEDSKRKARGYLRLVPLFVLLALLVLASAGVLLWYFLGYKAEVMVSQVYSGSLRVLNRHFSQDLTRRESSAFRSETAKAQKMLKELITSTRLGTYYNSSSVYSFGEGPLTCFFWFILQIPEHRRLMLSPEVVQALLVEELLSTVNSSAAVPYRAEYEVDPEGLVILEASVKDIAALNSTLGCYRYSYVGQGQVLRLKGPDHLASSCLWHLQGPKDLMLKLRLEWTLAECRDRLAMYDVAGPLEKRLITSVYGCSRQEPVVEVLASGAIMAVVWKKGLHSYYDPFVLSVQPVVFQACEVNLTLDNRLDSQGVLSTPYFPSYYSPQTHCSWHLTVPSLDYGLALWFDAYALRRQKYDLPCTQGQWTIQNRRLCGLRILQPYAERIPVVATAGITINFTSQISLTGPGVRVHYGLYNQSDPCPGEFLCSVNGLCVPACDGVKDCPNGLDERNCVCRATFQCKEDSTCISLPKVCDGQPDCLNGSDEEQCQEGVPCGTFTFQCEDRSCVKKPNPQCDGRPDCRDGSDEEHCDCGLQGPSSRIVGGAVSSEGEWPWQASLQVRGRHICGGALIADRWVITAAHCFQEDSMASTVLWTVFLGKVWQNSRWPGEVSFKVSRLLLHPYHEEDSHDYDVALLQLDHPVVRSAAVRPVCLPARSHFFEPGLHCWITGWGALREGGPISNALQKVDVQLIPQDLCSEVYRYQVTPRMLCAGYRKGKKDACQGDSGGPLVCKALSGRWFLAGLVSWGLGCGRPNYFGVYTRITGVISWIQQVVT


Target: T1, TMPRSS6 expressed in transfected HepG2 …
Test: cell-based or functional assay

| Binder | HAMP promoter activity (HAMP-luciferase reporter assay in HepG2 cells expressing TMPRSS6), EC50 [µg/mL] |
| --- | --- |
| humanized anti-TMPRSS6 antibody variant hzMWTx-001Var (antibody, human IgG1, kappa, N297A, V domains shown) VH: EVQLVQSGAEVKKPGASVKVSCKASGYTFTSYWITWVRQAPGQRLEWIGNIYPGSGSTYYNEKFKSKATITRDTSSRTAYMELSSLRSEDTAVYYCAPYDADYAMDYWGQGTLVTVSS VL: DIQMTQSPSSLSASVGDRVTITCKASQDISNYLSWFQQKPGKAPKLLIYRANRLVEGVPSRFSGSGSGTDFTLTISSLQPEDFATYFCLQYDEFPLTFGGGTKVEIKR | 0.8 |
| MWTx-003 anti-TMPRSS6 antibody (antibody, mouse IgG2b, kappa, V domains shown) VH: EVQLQQSGAELVKPGASVKLSCTASGFNIEDYYIHWVKERTEQGLEWIGRIDPEDGETTYAPQFQGKATIIPDTSSNTAYMQLSSLTSEDAAVYYCARSIYLDPMDYWGQGTSVTVSS VL: DIVMTQSHKFMSTSVGDRVSITCKASQDVTTAVAWYQQKPGQSPKILIYWATTRHTGVPDRFTGSISGTTYILTISSVQAEDLALYYCQQHYSTPYTFGGGTKLEIKR | 2 |
| MWTx-001 anti-TMPRSS6 antibody (antibody, mouse IgG2a, kappa, V domains shown) VH: QVQLQQPGAELAKPGASVKMSCKASGYTFTSYWITWVKQRPGQDLEWIGNIYPGSGSTYYNEKFKSKATLTVDTSSRTAYMQLSSLTSADSAVYYCAPYDSDYAMDYWGQGTSVTVSS VL: DIKMTQSPSSMYASLGERVTITCKASQDINNYLSWFQQKPGKSPKTLIYRANRLVDGVPSRVSGSGSGQDYSLTISSLEYEDVGIYFCLQYDEFPLTFGAGTKLELKR | 3 |

More lines, now with the values ahead:

| HAMP promoter activity (HAMP-luciferase reporter assay in HepG2 cells expressing TMPRSS6), EC50 [µg/mL] | Binder |
| --- | --- |
| 0.3 | humanized anti-TMPRSS6 antibody variant hzMWTx-002Var (antibody, human IgG1, kappa, N297A, V domains shown) VH: EVQLVQSGAEVKKPGASVKVSCKASGFNIKDYYIHWVRQATGQGLEWMGRIDPEDAESEYAPKFQGRVTITADTSTDTAYMELSSLRSEDTAVYYCTRGDSMMVTYFDYWGQGTLVTVSS VL: DIQMTQSPSSLSASVGDRVTITCKASQDVSTAVAWYQQKPGKAPKLLIYWAFTRHTGVPSRFSGSGSGTDYALTISSLQPEDFATYYCQQHYRSPWTFGGGTKVEIKR |
| 0.3 | humanized anti-TMPRSS6 antibody variant hzMWTx-003Var (antibody, human IgG1, kappa, L234A L235A, V domains shown) VH: QVQLVQSGAEVKKPGASVKVSCKASGFNIEDYYMHWVRQAPGQRLEWMGRIDPEDAETTYSPKFQGRVTIIPDTSANTAYMELSSLRSEDTAVYYCARSIYLDPMDYWGQGTLVTVSS VL: DIQMTQSPKSLSASVGDRVTITCRASQDVTTALAWYQQKPGQSPKLLIYWATTRHSGVPSRFSGSGSGTDFTLTISSLQPEDFATYYCQQHYSTPYTFGQGTKLEIKR |
